Assay results taken from patent US20230365703A1 (SHANGHAI LYN CREST ENTERPRISE MANAGEMENT, published 2023).
Each block holds one binder with its values, some of them ahead of it.

Legend:
[1] = molecular target: CD47 on CD47-transfected CHO-K1 cells (Homo sapiens (Human), UniProt Q08722 19-323); assay: flow cytometry on CD47-transfected CHO-K1 cells (CD38-/CD47+), anti-human IgG-FITC detection
[2] = molecular target: T1, GPC3 on liver cancer cells (HepG2, HuH-7) (UniProt P51654 25-554); assay: flow cytometry on HepG2 cells, Alexa Fluor 488 anti-human IgG; table under the plot prints no unit, unit taken from the axis Con.(nM)
T1 construct: whole, on cells; also called GPC3 antigen

[3] = molecular target: T2, IL12 receptors on H_IL12 Reporter 293 cells (UniProt P42701 24-662; Q99665 24-862, limits assumed); assay: cell-based or functional assay
[4] = molecular target: T2, IL12 receptors on H_IL12 Reporter 293 …; assay: cell-based or functional assay; remark: listed apart in the source

T2 sequence (Q99665 24-862 limits assumed, chain 2 of 2, other chains not shown): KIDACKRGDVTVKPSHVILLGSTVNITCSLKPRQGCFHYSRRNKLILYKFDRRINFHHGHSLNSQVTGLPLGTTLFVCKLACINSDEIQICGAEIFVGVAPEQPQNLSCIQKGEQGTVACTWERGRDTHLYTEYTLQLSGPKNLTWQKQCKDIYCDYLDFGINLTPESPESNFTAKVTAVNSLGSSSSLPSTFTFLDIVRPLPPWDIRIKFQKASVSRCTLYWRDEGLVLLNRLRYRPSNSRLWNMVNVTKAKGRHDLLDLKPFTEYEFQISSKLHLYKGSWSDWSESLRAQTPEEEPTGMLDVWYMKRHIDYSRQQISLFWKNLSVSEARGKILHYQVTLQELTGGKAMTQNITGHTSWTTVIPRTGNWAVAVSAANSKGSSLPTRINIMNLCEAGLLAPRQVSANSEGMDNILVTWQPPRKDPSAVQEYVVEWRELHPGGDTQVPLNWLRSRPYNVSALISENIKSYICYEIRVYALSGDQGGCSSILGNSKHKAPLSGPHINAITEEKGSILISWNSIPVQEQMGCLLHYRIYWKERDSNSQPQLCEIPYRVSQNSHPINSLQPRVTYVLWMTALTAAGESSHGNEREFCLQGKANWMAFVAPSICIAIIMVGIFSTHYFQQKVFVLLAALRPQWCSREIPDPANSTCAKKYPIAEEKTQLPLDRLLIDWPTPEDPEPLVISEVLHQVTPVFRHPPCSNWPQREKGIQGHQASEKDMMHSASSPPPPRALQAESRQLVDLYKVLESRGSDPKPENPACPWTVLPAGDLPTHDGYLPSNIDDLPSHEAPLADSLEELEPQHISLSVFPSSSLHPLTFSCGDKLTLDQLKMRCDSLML

binding result [1]: no binding
B1: Anti-CD38 monoclonal antibody Felzartamab (antibody, human IgG1, lambda, V domains shown)
VH: QVQLVESGGGLVQPGGSLRLSCAASGFTFSSYYMNWVRQAPGKGLEWVSGISGDPSNTYYADSVKGRFTISRDNSKNTLYLQMNSLRAEDTAVYYCARDLPLVYTGFAYWGQGTLVTVSS
VL: DIELTQPPSVSVAPGQTARISCSGDNLRHYYVYWYQQKPGQAPVLVIYGDSKRPSGIPERFSGSNSGNTATLTISGTQAEDEADYYCQTYTGGASLVFGGGTKLTVLG

EC50 [2]: 0.529 nM
B2: Anti-GPC3 monoclonal antibody codrituzumab (antibody, human IgG1, kappa, V domains shown)
VH: QVQLVQSGAEVKKPGASVKVSCKASGYTFTDYEMHWVRQAPGQGLEWMGALDPKTGDTAYSQKFKGRVTLTADKSTSTAYMELSSLTSEDTAVYYCTRFYSYTYWGQGTLVTVSS
VL: DVVMTQSPLSLPVTPGEPASISCRSSQSLVHSNRNTYLHWYLQKPGQSPQLLIYKVSNRFSGVPDRFSGSGSGTDFTLKISRVEAEDVGVYYCSQNTHVPPTFGQGTKLEIKR
notes: also called GC33; anti-GPC3 mAb

EC50 on H_IL12 Reporter 293 cells (One-Glo signal; called binding affinity by the filing) [3]: 30 nM
fold weaker than the IL12A and IL12B complex on H_IL12 Reporter 293 cells [3]: ~500 times
EC50 (read off the curve), H_IL12 Reporter 293 cells, One-Glo signal, LCB-018 with IL12B after isotype pre-incubation (TIGIT free) [4]: ~4 nM
EC50 (read off the curve), H_IL12 Reporter 293 cells, One-Glo signal, LCB-018 with IL12B after pre-block of TIGIT with 200 nM Tiragolumab [4]: ~10 nM
B3: LCB-018 (bispecific antibody)
heavy: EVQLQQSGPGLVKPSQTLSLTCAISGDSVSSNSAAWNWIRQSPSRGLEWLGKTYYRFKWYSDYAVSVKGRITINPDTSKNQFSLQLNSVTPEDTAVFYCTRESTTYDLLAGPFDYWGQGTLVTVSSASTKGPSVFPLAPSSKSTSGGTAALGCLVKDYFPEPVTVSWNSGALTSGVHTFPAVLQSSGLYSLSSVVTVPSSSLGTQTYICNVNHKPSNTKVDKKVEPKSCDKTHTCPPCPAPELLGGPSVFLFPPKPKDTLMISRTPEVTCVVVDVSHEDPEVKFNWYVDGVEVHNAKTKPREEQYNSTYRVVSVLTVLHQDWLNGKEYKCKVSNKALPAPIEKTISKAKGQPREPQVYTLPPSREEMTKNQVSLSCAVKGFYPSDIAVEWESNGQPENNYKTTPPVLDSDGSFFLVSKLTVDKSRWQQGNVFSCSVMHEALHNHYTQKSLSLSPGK
chain 1: not shown
chain 2: WELKKDVYVVELDWYPDAPGEMVVLTCDTPEEDGITWTLDQSSEVLGSGKTLTIQVKEFGDAGQYTCHKGGEVLSHSLLLLHKKEDGIWSTDILKDQKEPKNKTFLRCEAKNYSGRFTCWWLTTISTDLTFSVKSSRGSSDPQGVTCGAATLSAERVRGDNKEYEYSVECQEDSACPAAEESLPIEVMVDAVHKLKYENYTSSFFIRDIIKPDPPKNLQLKPLKNSRQVEVSWEYPDTWSTPHSYFSLTFCVQVQGKSKREKKDRVFTDKTSATVICRKNASISVRAQDRYYSSSWSEWASVPCS
